Assays:
[1] = Oxidase activity testing, lyophilised recombinant P450/ferredoxin SeuF08/ferredoxin reductase SCF15A against ambroxide; format: biochemical
Experimental: (§1) Lyophilised material of recombinant P450, ferredoxin and ferredoxin reductase proteins was made as described in Example 4 and reconstituted in high purity water to the original volume. Biocatalysis was performed with shaking incubation at 27° C. in the following conditions: 100 mM potassium phosphate pH 8.0, 5 mM MgCl2 (both present in the reconstituted enzyme preparation) and 0.1 mg/ml substrate compound such as ambroxide (Sigma-Aldrich, UK), carbamazepine (Sigma-Aldrich, UK), diclofenac (Sigma-Aldrich, UK), tivantinib (MedChemtronica, Sweden), clarithromycin (Tokyo Chemical Industry, Japan), sclareol (Sigma-Aldrich, UK), celecoxib (LC Laboratories, USA), buparvaquone (Sigma-Aldrich, UK), BIRB796 (MedChemExpress, USA), vanoxerine (CiVentiChem, USA), valsartan (Tokyo Chemical Industry, Japan), ruxolitinib (LC Laboratories, USA), perindopril (Selleckchem, USA), solifenacin (Key Organics, UK), 7-ethoxycoumarin (Tokyo Chemical Industry, Japan), tofacitinib (LC Laboratories, USA), ebastine (Key Organics, UK), efavirenz (Key Organics, UK), propanalol (Sigma-Aldrich, UK) and tolbutamide (Key Organics, UK).
(§2) Concentrations of P450, ferredoxin and ferredoxin reductase were as extracted (Example 4). Reactions were initiated by addition of 10× stock of cofactor mixture (50 mM G6P, 10 mM NADP+, 10 UN/ml G6PDH) to provide a final volume of e.g., 10 μl to 90 μl for 100 μl total reaction volumes. After 16-20 hours, reactions were extracted with an equal volume of acetonitrile, centrifuged to remove precipitated proteins and conversion assessed by UPLC-MS analysis.
(§3) UPLC Data were Obtained as Follows: • Column: Acquity UPLC BEH Shield RP18 1.7 μm 2.1 mm i.d. 50 mm length • Solvents: H2O, B: Acetonitrile, both with 0.1% Formic acid • Flow rate: 1.0 ml/min • Detector: Waters Acquity UPLC PDA (UV-Vis detection) and Waters Acquity UPLC QDA (MS)
(§4) To confirm the identities of reaction products where known, their chromatographic retention time, mass and ultraviolet spectra were compared with those of authentic metabolite standards.
Representative results for the % conversions of ambroxide to oxidised (+16 Da) products for single point mutants at position T109 are shown in Table 2 below.

[2] = Oxidase activity testing against carbamazepine; format: biochemical; conditions: for +16 Da (1.18 min) 253 m/z: 2-hydroxycarbamazepine; for +16 Da (1.18 min) 253 m/z / +16 Da (1.14 min) 253 m/z / Parent (1.31 min) 237 m/z: relative MS peak area; for +16 Da (1.14 min) 253 m/z: carbamazepine epoxide; for Parent (1.31 min) 237 m/z: remaining carbamazepine, 0.1 mg/ml, 27° C., 16-20 hours; for Average % conversion: substrate carbamazepine, relative MS peak areas
Experimental: as §1, §2, §3, §4
Representative results for the % conversions of carbamazepine to oxidised (+16 Da) products for single point mutants at position L198 are shown in Table 3 below.

[3] = oxidised ambroxide product, relative MS peak area

| +16 Da (1.18 min) 253 m/z [2] [%] | +16 Da (1.14 min) 253 m/z [2] [%] | Parent (1.31 min) 237 m/z [2] [%] | Molecule | +16 Da (1.50 min) 253 m/z [1, 3] [%] | +16 Da (1.60 min) 253 m/z [1, 3] [%] | +16 Da (2.04 min) 253 m/z [1, 3] [%] | Ambroxide (2.22 min) 237 m/z ([1]; remaining substrate, relative MS peak area, 0.1 mg/ml ambroxide, 27° C., 16-20 hours) [%] | Average % conversion ([1]; substrate ambroxide, relative MS peak areas) [%] | Average % conversion [2] [%] |
| --- | --- | --- | --- | --- | --- | --- | --- | --- | --- |
| – | – | – | SeuC10M1: P450SeuC10 with T109R mutation, SEQ ID NO: 6 (protein, SeuC10M1) MKIGTTHLTRLRGLSMTELTDITGPAAQAETVAFPQDRTCPYHPPTGYDPLRDGRPLSRVTLYDGREVWLVTAQATARALLADPRLSTDRRRDGFPVPTPRFAAGRDRRLALLGLDDPEHHRQRRLLIPSFTLKRATAQRPWIQRIVDELLDAMIARGPVADLVSAFALPVPSMVICELLGVPYADHEFFEEQSRRLLRGPTGADTTDARDRLEAYLGDLIDAKAKEAEPGDGILDDLVHNRLRAGELDRSVLVSLAVILLVAGHETTANMISLGTYTLLQHPERLAELRADPSLLPAVVEELLRMLSIAEGLQRLALEDIEIDGITIRAGEGVLFSTSVINRDTAVYEDPDDLDFHRADRHHVAFGFGIHQCLGQNLARAELEIALGSLFTRLPGLRLAAPAEEIPFKPGDTVQGMLELPVTW | 40.7 | 0.0 | 0.0 | 59.3 | 40.7 | – |
| 0.0 | 40.5 | 59.5 | SeuC10M12: P450SeuC10 with L198M mutation, SEQ ID NO: 28 (protein, SeuC10M12) MKIGTTHLTRLRGLSMTELTDITGPAAQAETVAFPQDRTCPYHPPTGYDPLRDGRPLSRVTLYDGREVWLVTAQATARALLADPRLSTDRRRDGFPVPTPRFAAGRDRTLALLGLDDPEHHRQRRLLIPSFTLKRATAQRPWIQRIVDELLDAMIARGPVADLVSAFALPVPSMVICELLGVPYADHEFFEEQSRRLMRGPTGADTTDARDRLEAYLGDLIDAKAKEAEPGDGILDDLVHNRLRAGELDRSVLVSLAVILLVAGHETTANMISLGTYTLLQHPERLAELRADPSLLPAVVEELLRMLSIAEGLQRLALEDIEIDGITIRAGEGVLFSTSVINRDTAVYEDPDDLDFHRADRHHVAFGFGIHQCLGQNLARAELEIALGSLFTRLPGLRLAAPAEEIPFKPGDTVQGMLELPVTW | – | – | – | – | – | 40.5 |
| 0.0 | 35.3 | 64.7 | SeuC10M8: P450SeuC10 with L198I mutation, SEQ ID NO: 20 (protein, SeuC10M8) MKIGTTHLTRLRGLSMTELTDITGPAAQAETVAFPQDRTCPYHPPTGYDPLRDGRPLSRVTLYDGREVWLVTAQATARALLADPRLSTDRRRDGFPVPTPRFAAGRDRTLALLGLDDPEHHRQRRLLIPSFTLKRATAQRPWIQRIVDELLDAMIARGPVADLVSAFALPVPSMVICELLGVPYADHEFFEEQSRRLIRGPTGADTTDARDRLEAYLGDLIDAKAKEAEPGDGILDDLVHNRLRAGELDRSVLVSLAVILLVAGHETTANMISLGTYTLLQHPERLAELRADPSLLPAVVEELLRMLSIAEGLQRLALEDIEIDGITIRAGEGVLFSTSVINRDTAVYEDPDDLDFHRADRHHVAFGFGIHQCLGQNLARAELEIALGSLFTRLPGLRLAAPAEEIPFKPGDTVQGMLELPVTW | – | – | – | – | – | 35.3 |
| 0.0 | 43.7 | 56.3 | SeuC10M14: P450SeuC10 with L198V mutation, SEQ ID NO: 32 (protein, SeuC10M14) MKIGTTHLTRLRGLSMTELTDITGPAAQAETVAFPQDRTCPYHPPTGYDPLRDGRPLSRVTLYDGREVWLVTAQATARALLADPRLSTDRRRDGFPVPTPRFAAGRDRTLALLGLDDPEHHRQRRLLIPSFTLKRATAQRPWIQRIVDELLDAMIARGPVADLVSAFALPVPSMVICELLGVPYADHEFFEEQSRRLVRGPTGADTTDARDRLEAYLGDLIDAKAKEAEPGDGILDDLVHNRLRAGELDRSVLVSLAVILLVAGHETTANMISLGTYTLLQHPERLAELRADPSLLPAVVEELLRMLSIAEGLQRLALEDIEIDGITIRAGEGVLFSTSVINRDTAVYEDPDDLDFHRADRHHVAFGFGIHQCLGQNLARAELEIALGSLFTRLPGLRLAAPAEEIPFKPGDTVQGMLELPVTW | – | – | – | – | – | 43.7 |
| 0.0 | 1.9 | 98.1 | SeuC10M16: P450SeuC10 with L198N mutation, SEQ ID NO: 36 (protein, SeuC10M16) MKIGTTHLTRLRGLSMTELTDITGPAAQAETVAFPQDRTCPYHPPTGYDPLRDGRPLSRVTLYDGREVWLVTAQATARALLADPRLSTDRRRDGFPVPTPRFAAGRDRTLALLGLDDPEHHRQRRLLIPSFTLKRATAQRPWIQRIVDELLDAMIARGPVADLVSAFALPVPSMVICELLGVPYADHEFFEEQSRRLNRGPTGADTTDARDRLEAYLGDLIDAKAKEAEPGDGILDDLVHNRLRAGELDRSVLVSLAVILLVAGHETTANMISLGTYTLLQHPERLAELRADPSLLPAVVEELLRMLSIAEGLQRLALEDIEIDGITIRAGEGVLFSTSVINRDTAVYEDPDDLDFHRADRHHVAFGFGIHQCLGQNLARAELEIALGSLFTRLPGLRLAAPAEEIPFKPGDTVQGMLELPVTW | – | – | – | – | – | 1.9 |
| 0.0 | 14.6 | 85.4 | SeuC10M18: P450SeuC10 with L198H mutation, SEQ ID NO: 40 (protein, SeuC10M18) MKIGTTHLTRLRGLSMTELTDITGPAAQAETVAFPQDRTCPYHPPTGYDPLRDGRPLSRVTLYDGREVWLVTAQATARALLADPRLSTDRRRDGFPVPTPRFAAGRDRTLALLGLDDPEHHRQRRLLIPSFTLKRATAQRPWIQRIVDELLDAMIARGPVADLVSAFALPVPSMVICELLGVPYADHEFFEEQSRRLHRGPTGADTTDARDRLEAYLGDLIDAKAKEAEPGDGILDDLVHNRLRAGELDRSVLVSLAVILLVAGHETTANMISLGTYTLLQHPERLAELRADPSLLPAVVEELLRMLSIAEGLQRLALEDIEIDGITIRAGEGVLFSTSVINRDTAVYEDPDDLDFHRADRHHVAFGFGIHQCLGQNLARAELEIALGSLFTRLPGLRLAAPAEEIPFKPGDTVQGMLELPVTW | – | – | – | – | – | 14.6 |
| 0.0 | 3.2 | 96.8 | SeuC10M17: P450SeuC10 with L198D mutation, SEQ ID NO: 38 (protein, SeuC10M17) MKIGTTHLTRLRGLSMTELTDITGPAAQAETVAFPQDRTCPYHPPTGYDPLRDGRPLSRVTLYDGREVWLVTAQATARALLADPRLSTDRRRDGFPVPTPRFAAGRDRTLALLGLDDPEHHRQRRLLIPSFTLKRATAQRPWIQRIVDELLDAMIARGPVADLVSAFALPVPSMVICELLGVPYADHEFFEEQSRRLDRGPTGADTTDARDRLEAYLGDLIDAKAKEAEPGDGILDDLVHNRLRAGELDRSVLVSLAVILLVAGHETTANMISLGTYTLLQHPERLAELRADPSLLPAVVEELLRMLSIAEGLQRLALEDIEIDGITIRAGEGVLFSTSVINRDTAVYEDPDDLDFHRADRHHVAFGFGIHQCLGQNLARAELEIALGSLFTRLPGLRLAAPAEEIPFKPGDTVQGMLELPVTW | – | – | – | – | – | 3.2 |
| 0.0 | 3.9 | 96.1 | SeuC10M19: P450SeuC10 with L198Y mutation, SEQ ID NO: 42 (protein, SeuC10M19) MKIGTTHLTRLRGLSMTELTDITGPAAQAETVAFPQDRTCPYHPPTGYDPLRDGRPLSRVTLYDGREVWLVTAQATARALLADPRLSTDRRRDGFPVPTPRFAAGRDRTLALLGLDDPEHHRQRRLLIPSFTLKRATAQRPWIQRIVDELLDAMIARGPVADLVSAFALPVPSMVICELLGVPYADHEFFEEQSRRLYRGPTGADTTDARDRLEAYLGDLIDAKAKEAEPGDGILDDLVHNRLRAGELDRSVLVSLAVILLVAGHETTANMISLGTYTLLQHPERLAELRADPSLLPAVVEELLRMLSIAEGLQRLALEDIEIDGITIRAGEGVLFSTSVINRDTAVYEDPDDLDFHRADRHHVAFGFGIHQCLGQNLARAELEIALGSLFTRLPGLRLAAPAEEIPFKPGDTVQGMLELPVTW | – | – | – | – | – | 3.8 |
